# Source: US20250027068
# Changes are numbered by the printed parent chain.
# B1: Ide85 (protein)
# chain: MANQEIRYSEVTPYHVTSVWTKGVTPPAKFTQGEDVFHAPYVANQGWYDITKTFNGKDDLLCGAATAGNMLHWWFDQNKEKIEAYLKKHPDKQKIMFGDQELLDVRKVINTKGDQTNSELFNYFRDKAFPGLSARRIGVMPDLVLDMFINGYYLNVYKTQTTDVNRTYQEKDRRGGIFDAVFTRGDQSKLLTSRHDFKEKNLKEISDLIKKELTEGKALGLSHTYANVRINHVINLWGADFDSNGNLKAIYVTDSDSNASIGMKKYFVGVNSAGKVAISAKEIKEDNIGAQVLGLFTLSTGQDSWNQTN
# B2: IdeZ (protein)
# chain: DDYQRNATEAYAKEVPHQITSVWTKGVTPLTPEQFRYNNEDVIHAPYLAHQGWYDITKAFDGKDNLLCGAATAGNMLHWWFDQNKTEIEAYLSKHPEKQKIIFNNQELFDLKAAIDTKDSQTNSQLFNYFRDKAFPNLSARQLGVMPDLVLDMFINGYYLNVFKTQSTDVNRPYQDKDKRGGIFDAVFTRGDQTTLLTARHDLKNKGLNDISTIIKQELTEGRALALSHTYANVSISHVINLWGADFNAEGNLEAIYVTDSDANASIGMKKYFVGINAHGHVAISAKKIEGENIGAQVLGLFTLSSGKDIWQKLS
# B3: PRT-240 (protein)
# chain: MEVVEVWPYGQNPNGKTEILSQTEDSESLQRLRDIEDFQAEKKMQNVVYTKWLDGVDVKDHDFRKIVDGDYAYYATPLLNGRGFYDINKDFNRDSDKCAAAVAANMFHYWLDINRDNVDRFLRQNPEKHGIIELPDGQLKLSDFLNTYESDHGYRDKSKLFDFISNAFNGPVWADKLLDNYINGYGYNKKYGRTIEDPTKNTSKFNFFKEVFNEKILTNNHQIRNQNEFSVLLSEALYTGKAIGLAYGPGGLRHSLGHIISVWGADLDADGNVVAIYVTDSDDKKLTIGDERVGLKRYKISTDDNNRLRLTTYEETHNTGAQIRGLETLDTGKYAWADYFDKTEQTGTDQAEQLEHHHHHH
# B4: PRT-241 (protein)
# chain: MVTSVWTKGVTPPANFTQGEDVFHAPYVANQGWYDITKTFNGKDDLLCGAATAGNMLHWWFDQNKDQIKRYLEEHPEKQKINFNGEQMFDVKEAIDTKNHQLDSKLFEYFKEKAFPNLSTKHLGVFPDHVIDMFINGYRLSLLNHGPTPVKEGSKDPRGGIFDAVFTRGDQSKLLTSRHDFKEKNLKEISDLIKKELTEGKALGLSHTYANVRINHVINLWGADFDSNGNLKAIYVTDSDSNASIGMKKYFVGVNSSGKVAISAKEIKEDNIGAQVLGLFTLSTGQDSWNQTN
# B5: IdeZ2 (protein)
# chain: EVVEVWPYGQNPNGKTEILSQTEDSESLQRLRDIEDFQAEKKMQNVVYTKWLDGVDVKDHDFRKIVDGNIAYYATPLLNGRGFYDINKDFNRDSDKCAAAVAANMFHYWLDINRDNVDRFLRQNPEKHGIIELPDGQLKLSDFLNTYESDHGYRDKSKLFDFISNNFNGPVWTDKLLDNYINGYAYNYKYGRTIEDPTKNTSKINFFKEVFNEKILTNNHSIRNQNEFSVLLSEALYTGKAIGLSYGPAGLRHSLGHIISVWGADLDADGNVVAIYVTDSDDKKLTIGDERVGLKRYKISTDDENRLRLTAYEETHNTGGQIRGLWTLDTGKYAWADYFDKTEQTGTDQAEQ
# B6: IdeS (protein)
# chain: ANQEIRYSEVTPYHVTSVWTKGVTPPANFTQGEDVFHAPYVANQGWYDITKTFNGKDDLLCGAATAGNMLHWWFDQNKDQIKRYLEEHPEKQKINFNGEQMFDVKEAIDTKNHQLDSKLFEYFKEKAFPYLSTKHLGVFPDHVIDMFINGYRLSLTNHGPTPVKEGSKDPRGGIFDAVFTRGDQSKLLTSRHDFKEKNLKEISDLIKKELTEGKALGLSHTYANVRINHVINLWGADFDSNGNLKAIYVTDSDSNASIGMKKYFVGVNSAGKVAISAKEIKEDNIGAQVLGLFTLSTGQDSWNQTN
# B7: PRT-239 (protein)
# chain: MEVVEVWPYGQNPNGKTEILSQTEDSESLQRLRDIEDFQAEKKMQNVVYTKWLDGVDVKDHDFRKIVDGGTAYYATPLLNGRGFYDINKDFNRDSLLCSAAVAANMFHYWLDINRDNVDRFLRQNPEKHGIIELPDGQLKLSDFLNTYESDHGYRDKSKLFDYISNNFNGGLWTDKLLDNYINGYGYNKKYGRTIEDPTKNTSKINFFKEVFNEKILTNNHQIRNQNEFSVLLSEALYTGKAIGLSYGPAGLRHSLGHIISVWGADLDADGNVVAIYVTDSDDKKLTIGDERVGLKRYKISTDDNNRLRLTAYEETHNTGGQIRGLWTLDTGKYAWADYFDKTEQTGTDQAEQLEHHHHHH
# B8: PRT-251 (protein)
# chain: MVTSVWTKGVTPPTNFTYGEDVLHAPYVANQGWYDITKTFNGKDDLLCGAATAGNMLHWWFDQNKEQIENYLKKHPEKQKINFNGEQMFDVKEAIDTKDSQLDSKLFEYFLEKAFPNLSTKHLGVFPDHVIDMFINGYRLSLLNHGPTPVKRGSKDPRGGIFDAVFTRGDQSKLLTNRHDFKEKTLKEISDLIKQELTEGKALGISHTYANVRINHVINLWGADFDAEGNLEAIAVTDSDSNASIGMKKYFVGVNSSGKVAISAKEIEEDNIGAQVLGLFTLSTGQDIWNQTN
# B9: PRT-259 (protein)
# chain: B8 chain with D45N, M88L, L111K, P157K, D170V, A235Y, S241T
# B10: PRT-267 (protein)
# chain: B8 chain with N15D, T17I, V28K, N30G, E108D, L111K, F181L, E183N, A235Y, A243P
# B11: PRT-243 (protein)
# chain: B4 chain with T39L, E108D, V212G, A243P
# Molecular target: pooled human IgG
Protein,Enzyme Activity Endpoint Assay (purified): Fab'2 [ng/µL],Enzyme Activity Endpoint Assay (purified): Fc [ng/µL],Enzyme Activity Endpoint Assay (purified): IgG [ng/µL],Enzyme Activity Endpoint Assay (purified): scIgG [ng/µL]
B1,1130,615,0,0
B2,1290,481,0,0
B3,0,82,1400,36
B4,731,406,0,0
B5,1340,566,0,0
B6,1360,524,0,0
B7,49,269,689,360

# Molecular target: pooled human IgG (human IgG1,2,3 and 4)
Protein,Enzyme Activity Endpoint Assay: Fab′2 [ng/µL],Enzyme Activity Endpoint Assay: Fc [ng/µL],Enzyme Activity Endpoint Assay: IgG [ng/µL],Enzyme Activity Endpoint Assay: scIgG [ng/µL]
B8,1070,444,0,0
B9,1100,453,0,0
B10,1090,438,0,0
B11,967,430,25,0
